Measurements as given in patent publication US20100260668A1 (published 2010).

Assays:
[1] = target: T1, DLL4 ECD/His tag (R&D 1506-D4-050) (UniProt Q9NR61 27-529); assay: direct bind ELISA, DLL4 on plate; DLL4 VD C-term.; HC Short, LC Long
T1 construct: extracellular domain; Bought antigen coated on the ELISA plate; not shown: His tag

MSP Receptor ECD-His tag = target: T2, MSP Receptor ECD-His tag (UniProt Q04912 25-957, limits assumed); assay: Biacore SPR
T2 construct: extracellular domain; Bought reagent; also called RON; not shown: His tag

HGF = target: T3, HGF (UniProt P14210 32-728); assay: Biacore SPR
T3 construct: Bought reagent

[2] = target: recombinant human VEGF165 (human, UniProt P15692-4 27-191); assay: cell-based or functional assay
[3] = target: human DLL4 extracellular domain (human, UniProt Q9NR61 27-529); assay: cell-based or functional assay
DLL ECD His tag = target: T4, DLL ECD His tag (UniProt Q9NR61 27-529, limits assumed); assay: Biacore SPR
T4 construct: extracellular domain; Bought reagent; also called DLL4; DLL-4; not shown: His tag

recombinant human VEGF165, sequence (P15692 other isoform, or with tags, fused parts or gaps limits assumed): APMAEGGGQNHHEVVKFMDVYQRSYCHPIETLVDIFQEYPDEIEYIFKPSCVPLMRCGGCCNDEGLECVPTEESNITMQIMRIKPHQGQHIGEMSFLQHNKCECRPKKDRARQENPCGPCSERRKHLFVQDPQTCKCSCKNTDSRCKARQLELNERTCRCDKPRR
T3 sequence (P14210 32-728 limits assumed): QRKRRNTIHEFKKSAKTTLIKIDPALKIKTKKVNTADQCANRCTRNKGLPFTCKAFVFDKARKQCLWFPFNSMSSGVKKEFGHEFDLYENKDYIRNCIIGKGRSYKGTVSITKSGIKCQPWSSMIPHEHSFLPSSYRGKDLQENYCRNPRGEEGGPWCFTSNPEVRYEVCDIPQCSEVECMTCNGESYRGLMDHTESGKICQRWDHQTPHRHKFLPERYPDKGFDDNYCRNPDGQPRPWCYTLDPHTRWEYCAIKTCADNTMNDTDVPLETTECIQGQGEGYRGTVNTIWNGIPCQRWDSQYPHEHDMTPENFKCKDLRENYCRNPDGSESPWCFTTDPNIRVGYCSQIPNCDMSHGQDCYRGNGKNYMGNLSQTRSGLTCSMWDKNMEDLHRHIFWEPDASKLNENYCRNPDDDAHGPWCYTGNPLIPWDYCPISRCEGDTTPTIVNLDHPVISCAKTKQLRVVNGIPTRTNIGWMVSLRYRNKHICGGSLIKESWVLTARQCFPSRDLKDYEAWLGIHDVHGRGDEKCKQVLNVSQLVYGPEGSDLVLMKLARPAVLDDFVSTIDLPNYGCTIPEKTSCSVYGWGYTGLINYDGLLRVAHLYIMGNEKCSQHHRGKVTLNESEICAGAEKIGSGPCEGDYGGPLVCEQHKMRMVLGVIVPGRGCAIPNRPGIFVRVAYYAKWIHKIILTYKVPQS

B1: DVD464 (bispecific antibody, human IgG1, kappa)
heavy: not shown
light: DIQMTQSPSSLSASVGDRVTITCRASQVIRRSLAWYQQKPGKAPKLLIYAASNLASGVPSRFSGSGSGTDFTLTISSLQPEDFATYYCQQSNTSPLTFGQGTKVEIKRTVAAPSVFIFPPDIVMTQSPDSLAVSLGERATISCRASESVDNYGISFMKWFQQKPGQPPKLLIYAASNQGSGVPDRFSGSGSGTDFTLTISSLQAEDVAVYYCQQSKEVPWTFGGGTKVEIKRTVAAPSVFIFPPSDEQLKSGTASVVCLLNNFYPREAKVQWKVDNALQSGNSQESVTEQDSKDSTYSLSSTLTLSKADYEKHKVYACEVTHQGLSSPVTKSFNRGEC
notes: DVD-Ig; outer AB071 (VEGF), inner AB069 (DLL4); HC short, LC long linker; also called DVD464H; DVD464L
[1]
  EC50: 0.8 nM

B2: DVD510 (bispecific antibody, human IgG1, kappa)
heavy: not shown
light: DIQMTQSPSSLSASVGDRVTITCRASQVIRRSLAWYQQKPGKAPKLLIYAASNLASGVPSRFSGSGSGTDFTLTISSLQPEDFATYYCQQSNTSPLTFGQGTKVEIKRTVAAPSVFIFPPDIQMTQSSSYLSVSLGGRVTITCKASDHINNWLAWYQQKPGNAPRLLISGATSLETGVPSRFSGSGSGKDYTLSITSLQTEDVATYYCQQYWSIPLTFGAGTKLELKRTVAAPSVFIFPPSDEQLKSGTASVVCLLNNFYPREAKVQWKVDNALQSGNSQESVTEQDSKDSTYSLSSTLTLSKADYEKHKVYACEVTHQGLSSPVTKSFNRGEC
notes: DVD-Ig; outer AB071 (VEGF), inner AB072 (DLL4); HC short, LC long linker; also called DVD510H; DVD510L
[1]
  EC50: 0.42 nM

B3: DVD033 (bispecific antibody, human IgG1, kappa)
heavy: not shown
light: DVVMTQSPLSLPVTPGEPASISCRSSQSLLHSNGFNYVDWYLQKPGQSPHLLIYFGSYRASGVPDRFSGSGSGTDFTLKISRVEAEDVGVYYCMQALQTPPWTFGQGTKVEIRRTVAAPDIQMTQSPSSVSASVGDRVTITCRASQGISSWLAWYQQKPGKAPNLLIYEASSLQSGVPSRFGGSGSGTDFTLTISSLQPEDFATYYCQQANGFPWTFGQGTKVEIKRTVAAPSVFIFPPSDEQLKSGTASVVCLLNNFYPREAKVQWKVDNALQSGNSQESVTEQDSKDSTYSLSSTLTLSKADYEKHKVYACEVTHQGLSSPVTKSFNRGEC
notes: N-terminal VD RON, C-terminal VD HGF; also called DVD033H; DVD033L
MSP Receptor ECD-His tag
  Kd: 7.6 nM
  koff: 0.00118 s⁻¹
  kon: 156000 M⁻¹ s⁻¹
HGF
  Kd: 0.31 nM
  koff: 9.2e-05 s⁻¹
  kon: 297000 M⁻¹ s⁻¹

B4: DVD043 (bispecific antibody, human IgG1, kappa)
heavy: not shown
light: DIQMTQSPSSLSASVGDRVTITCSASQDISNYLNWYQQKPGKAPKVLIYFTSSLHSGVPSRFSGSGSGTDFTLTISSLQPEDFATYYCQQYSTVPWTFGQGTKVEIKRTVAAPDIQMTQSPSSLSASVGDRVTITCRASQDVSTAVAWYQQKPGKAPKLLIYSASFLYSGVPSRFSGSGSGTDFTLTISSLQPEDFATTYYCQQSYTGTVTFGQGTKVEIKRTVAAPSVFIFPPSDEQLKSGTASVVCLLNNFYPREAKVQWKVDNALQSGNSQESVTEQDSKDSTYSLSSTLTLSKADYEKHKVYACEVTHQGLSSPVTKSFNRGEC
[2]
  % inhibition of HUVEC proliferation at 0.67 nM: -22%
  % inhibition of HUVEC proliferation at 6.7 nM: 51%
  % inhibition of HUVEC proliferation at 67 nM: 89%
[3]
  Soluble Flt1 Assay, % of Neutralization @ 9.2 nM Ab: 1.1%
  Soluble Flt1 Assay, % of Neutralization @ 27.7 nM Ab: 50.3%
  Soluble Flt1 Assay, % of Neutralization @ 83.3 nM Ab: 57.9%

B5: DVD043 (bispecific antibody, human IgG1, kappa)
heavy: not shown
light: DIQMTQSPSSLSASVGDRVTITCSASQDISNYLNWYQQKPGKAPKVLIYFTSSLHSGVPSRFSGSGSGTDFTLTISSLQPEDFATYYCQQYSTVPWTFGQGTKVEIKRTVAAPDIQMTQSPSSLSASVGDRVTITCRASQDVSTAVAWYQQKPGKAPKLLIYSASFLYSGVPSRFSGSGSGTDFTLTISSLQPEDFATTYYCQQSYTGTVTFGQGTKVEIKRTVAAPSVFIFPPSDEQLKSGTASVVCLLNNFYPREAKVQWKVDNALQSGNSQESVTEQDSKDSTYSLSSTLTLSKADYEKHKVYACEVTHQGLSSPVTKSFNRGEC
notes: N-terminal VD VEGF, C-terminal VD DLL4; also called DVD043H; DVD043L
DLL ECD His tag
  Kd: 2.32 nM
  koff: 0.000217 s⁻¹
  kon: 93700 M⁻¹ s⁻¹

B6: DVD506 (bispecific antibody, human IgG1, kappa)
heavy: not shown
light: DIQMTQSPSSLSASVGDRVTITCSASQDISNYLNWYQQKPGKAPKVLIYFTSSLHSGVPSRFSGSGSGTDFTLTISSLQPEDFATYYCQQYSTVPWTFGQGTKVEIKRTVAAPSVFIFPPDIQMTQSSSYLSVSLGGRVTITCKASDHINNWLAWYQQKPGNAPRLLISGATSLETGVPSRFSGSGSGKDYTLSITSLQTEDVATYYCQQYWSIPLTFGAGTKLELKRTVAAPSVFIFPPSDEQLKSGTASVVCLLNNFYPREAKVQWKVDNALQSGNSQESVTEQDSKDSTYSLSSTLTLSKADYEKHKVYACEVTHQGLSSPVTKSFNRGEC
notes: DVD-Ig; HC short, LC long linker; also called DVD506H; DVD506L
[1]
  EC50: 0.32 nM

B7: DVD482 (bispecific antibody, human IgG1, kappa)
heavy: not shown
light: DIQMTQSPSSLSASVGDRVTITCSASQDISNYLNWYQQKPGKAPKVLIYFTSSLHSGVPSRFSGSGSGTDFTLTISSLQPEDFATYYCQQYSTVPWTFGQGTKVEIKRTVAAPSVFIFPPDIQMTQSPSSLSASVGDRVTITCRASQDVSTAVAWYQQKPGKAPKLLIYSASFLYSGVPSRFSGSGSGTDFTLTISSLQPEDFATTYYCQQSYTGTVTFGQGTKVEIKRTVAAPSVFIFPPSDEQLKSGTASVVCLLNNFYPREAKVQWKVDNALQSGNSQESVTEQDSKDSTYSLSSTLTLSKADYEKHKVYACEVTHQGLSSPVTKSFNRGEC
notes: DVD-Ig; HC short, LC long linker; also called DVD482H; DVD482L
[1]
  EC50: 0.36 nM

B8: DVD047 (bispecific antibody, human IgG1, kappa)
heavy: not shown
light: DIQMTQSPSSLSASVGDRVTITCSASQDISNYLNWYQQKPGKAPKVLIYFTSSLHSGVPSRFSGSGSGTDFTLTISSLQPEDFATYYCQQYSTVPWTFGQGTKVEIKRTVAAPDVVMTQSPLSLPVTPGEPASISCRSSQSLLHSNGFNYVDWYLQKPGQSPHLLIYFGSYRASGVPDRFSGSGSGTDFTLKISRVEAEDVGVYYCMQALQTPPWTFGQGTKVEIRRTVAAPSVFIFPPSDEQLKSGTASVVCLLNNFYPREAKVQWKVDNALQSGNSQESVTEQDSKDSTYSLSSTLTLSKADYEKHKVYACEVTHQGLSSPVTKSFNRGEC
[2]
  % inhibition of HUVEC proliferation at 0.67 nM: -5%
  % inhibition of HUVEC proliferation at 6.7 nM: 31%
  % inhibition of HUVEC proliferation at 67 nM: 65%
